Results: PMC6992696, “Supramolecular tholos-like architecture constituted by archaeal proteins without functional annotation” (Scientific Reports, 2020)

B3: PbaA (PF0015) from Pyrococcus furiosus, full-length (natural protein, UniProt Q8U4Q9 1-242, looked up)
chain: MEEKKPVNLVLPEVENAIFIEGYPGVGLVGHIAANFLAKELDMDLIGYVDSLFIPPMSLILEGRPTPPLRFYGKNNIIIAIADIFLPPTLVNEIAKEIVNYLKKVNAEKVISLAGMGIGFFKDTFEVWGIGGSEEENKELESLGVKILKYGSITGMSGKLLWEASRAGLKSYVLLGETFGDRPDPRAAANVVEVLNKMLGLNVSVEPLLKEAEMIEEQLRRMHEQMEEARRKMERQYETMYL
notes: PbaA (PF0015), Pyrococcus furiosus, full-length; cloned from P. furiosus genomic DNA; Homopentameric ring when isolated; two pentameric rings in the 10:10 complex with PF0014; also called full-length PbaA; PbaA pentamer

Columns and labels:
[1] = target: PbaA_(CΔ30), mutant PbaA with deletion of 30 C-terminal amino acid residues (Pyrococcus furiosus); test: SEC + other: negative stain EM; PbaA_(CΔ30) alone, in the absence of PF0014
[2] = target: PbaA_(CΔ30), mutant PbaA with deletion of 30 C-terminal amino acid residues (Pyrococcus furiosus); test: cryo-EM structure; purified PbaA_(CΔ30)/PF0014 complex; map EMD-0755 at 7.3 Å with D5 symmetry and 8.5 Å with C1 symmetry
[3] = target: B3; test: native MS; purified PbaA/PF0014 complex (20 μM) exchanged into 150 mM ammonium acetate pH 9.0, 2-fold diluted, nanoflow ESI, SYNAPT G2-Si; conditions: both partners purified
[4] = target: the molecule itself; test: cryo-EM structure; hexahistidine-tagged PbaA/Trx-PF0014 complex treated with excess anti-histidine-tag monoclonal antibody for 2 h at 4 °C; map at 14 Å, C1 symmetry
[5] = target: the molecule itself; test: HS-AFM; isolated proteins, top views on APTES-mica, tapping mode, room temperature

PbaA_(CΔ30), mutant PbaA with deletion of 30 C-terminal amino acid residues (domain or fragment)
stoichiometry N [1]: 14 protomers
stoichiometry N [2]: 5 protomers

B1: PF0014 from Pyrococcus furiosus (natural protein, UniProt Q8U4R0 1-128, looked up)
chain: MVVEIPLLSGIARRTLDALMRNPIRTVEIRNARNYMTLEKVKEGDLVFLTYESLEDVMRGTEGIIAMVTRMEKSHQRVPWEESDEREISICRVQLKLVGLGRVVEVQEKNGVVFVKVREMLHHEISMG
notes: PF0014, Pyrococcus furiosus, an archaeal protein without functional annotation; Monomeric by HS-AFM when isolated; ten copies in the complex with PbaA
stoichiometry N [3]: 1 PF0014 per PbaA (10:10)

B2: N-terminally hexahistidine-tagged PbaA (natural protein, Pyrococcus furiosus)
chain: MEEKKPVNLVLPEVENAIFIEGYPGVGLVGHIAANFLAKELDMDLIGYVDSLFIPPMSLILEGRPTPPLRFYGKNNIIIAIADIFLPPTLVNEIAKEIVNYLKKVNAEKVISLAGMGIGFFKDTFEVWGIGGSEEENKELESLGVKILKYGSITGMSGKLLWEASRAGLKSYVLLGETFGDRPDPRAAANVVEVLNKMLGLNVSVEPLLKEAEMIEEQLRRMHEQMEEARRKMERQYETMYL
notes: PbaA (PF0015), Pyrococcus furiosus; The His tag was labelled with a monoclonal anti-histidine-tag antibody (R&D Systems) in the cryo-EM sample; the antibody is only a tool; May be the same preparation as m1 if the tag was never removed there; not shown: His6, N-terminal, kept
stoichiometry N [4]: 5 protomers

B3
stoichiometry N [5]: 5 protomers
